According to US20150118286:

Assays:
P18 peptide = system: T1, P18 peptide
T1 sequence: RRYWYWRR

P16 peptide = system: T2, P16 peptide
T2 sequence: RRWWRRYY

P17 peptide = system: T3, P17 peptide
T3 sequence: RRRYWYYR

## Human tyrosinase
P18 peptide
  reduction of human tyrosinase activity at 200 µM (L-dopa substrate): 25% for P18
P16 peptide
  reduction of human tyrosinase activity at 200 µM (L-dopa substrate): human tyrosinase activity was reduced by 30% for P16
P17 peptide
  reduction of human tyrosinase activity at 200 µM (L-dopa substrate): 12% for P17
